# Results published in patent US11655308B2, “HM-3 fusion protein and application thereof” (TASLY BIOPHARMACEUTICALS CO., LTD., priority 2017, dated 2023).
# Values joined by “and” are separate entries in the source; they are usually repeats but may differ in a detail not shown here. Equal entries are not always repeated. Where two headings read alike, the source gives them in different places.
# Legend:
# [1] = rat, in vivo, sc
# Procedure: (§1) (1) 18 SD rats (half male and half female) were purchased and fed for one week.
# (§2) (2) Rats were divided into 3 groups, half male and half female, and weight of rats were recorded respectively.
# (§3) The blood was centrifuged at 12000 rpm/min to take 200 μL of supernatant, then the supernatant was diluted with PBS solution according to a ratio of 1:3, and finally placed in an EP tube and stored in a −80° C. refrigerator.
# (§4) (4) Biological samples were measured by double-antibody sandwich ELISA.
# (§5) (1) Coating, HM-3 monoclonal antibody was diluted with a coating buffer (CBS) in certain concentration, added to an ELISA plate and coated overnight.
# (§6) (2) Plate washing, the coating buffer was discarded, and the plate was washed by PBST for 3 times, and then dried by patting.
# (§7) (3) Sealing, a blocking buffer was added for sealing at 37.5° C., the plate washing process was repeated and the plate was dried by patting.
# (§8) (4) Addition of samples to be measured, the samples to be measured were added to the ELISA plate with multiple wells, and then incubated at 37.5° C.; the plate washing process was repeated and the plate was dried by patting.
# (§9) (5) Addition of a secondary antibody, the secondary antibody diluted proportionally was added for incubation at 37.5° C. The plate washing process was repeated and the plate was dried by patting.
# (§10) (6) Addition of the enzyme-labeled secondary antibody for reaction, the HRP-labeled secondary antibody which was diluted by 5% skim milk powder solution according to certain proportion was added for incubation at 37.5° C. The plate washing process was repeated and the plate was dried by patting.
# (§11) (7) Addition of a substrate, a TMB substrate in certain volume L was added for reaction in the dark.
# (§12) (8) Termination of the reaction, a certain amount of stop buffer was added to terminate the reaction.
# (§13) (9) Detection, read OD450 nm with a microplate reader.
# [2] = Pharmacokinetics after single subcutaneous injection (double-antibody sandwich ELISA)
# Procedure: as §1, §2, §3, §4, §5, §6, §7, §8, §9, §10, §11, §12, §13
substance,measurement,setting,value
mIgG4-Fc-(GGGGS)3-HM-3 [TSL-4],Vd/F,[1]; 4.17 mg/kg,4.200 L/kg
same,Vd/F,[1]; 12.5 mg/kg,3.177 L/kg
same,Vd/F,[1]; 37.5 mg/kg,4.967 L/kg
same,Plasma concentration,"[2]; 4.17 mg/kg sc, 0.00 h, Mean",0 µg/mL
same,Plasma concentration,"[2]; 4.17 mg/kg sc, 0.00 h, single rats No. 1-5",0 µg/mL
same,Plasma concentration,"[2]; 4.17 mg/kg sc, 0.50 h, Mean",0.0818 µg/mL
same,Plasma concentration,"[2]; 4.17 mg/kg sc, 0.50 h, single rats No. 1-5",0.00626 µg/mL and 0.0985 µg/mL and 0.131 µg/mL and 0.0504 µg/mL and 0.122 µg/mL
same,Plasma concentration,"[2]; 4.17 mg/kg sc, 1.00 h, Mean",0.135 µg/mL
same,Plasma concentration,"[2]; 4.17 mg/kg sc, 1.00 h, single rats No. 1-5",0.0588 µg/mL and 0.162 µg/mL and 0.168 µg/mL and 0.136 µg/mL and 0.151 µg/mL
same,Plasma concentration,"[2]; 4.17 mg/kg sc, 3.00 h, Mean",0.388 µg/mL
same,Plasma concentration,"[2]; 4.17 mg/kg sc, 3.00 h, single rats No. 1-5",0.238 µg/mL and 0.382 µg/mL and 0.412 µg/mL and 0.338 µg/mL and 0.570 µg/mL
same,Plasma concentration,"[2]; 4.17 mg/kg sc, 5.00 h, Mean",0.573 µg/mL
same,Plasma concentration,"[2]; 4.17 mg/kg sc, 5.00 h, single rats No. 1-5",0.667 µg/mL and 0.482 µg/mL and 0.575 µg/mL and 0.374 µg/mL and 0.766 µg/mL
same,Plasma concentration,"[2]; 4.17 mg/kg sc, 6.00 h, Mean",0.894 µg/mL
same,Plasma concentration,"[2]; 4.17 mg/kg sc, 6.00 h, single rats No. 1-5",1.278 µg/mL and 0.699 µg/mL and 1.024 µg/mL and 0.491 µg/mL and 0.978 µg/mL
same,Plasma concentration,"[2]; 4.17 mg/kg sc, 7.00 h, Mean",1.297 µg/mL
same,Plasma concentration,"[2]; 4.17 mg/kg sc, 7.00 h, single rats No. 1-5",1.696 µg/mL and 0.903 µg/mL and 1.556 µg/mL and 0.914 µg/mL and 1.415 µg/mL
same,Plasma concentration,"[2]; 4.17 mg/kg sc, 8.00 h, Mean",1.356 µg/mL
same,Plasma concentration,"[2]; 4.17 mg/kg sc, 8.00 h, single rats No. 1-5",1.383 µg/mL and 1.584 µg/mL and 1.319 µg/mL and 1.407 µg/mL and 1.088 µg/mL
same,Plasma concentration,"[2]; 4.17 mg/kg sc, 10.00 h, Mean",1.058 µg/mL
same,Plasma concentration,"[2]; 4.17 mg/kg sc, 10.00 h, single rats No. 1-5",1.192 µg/mL and 1.305 µg/mL and 0.854 µg/mL and 0.960 µg/mL and 0.980 µg/mL
same,Plasma concentration,"[2]; 4.17 mg/kg sc, 12.00 h, Mean",0.771 µg/mL
same,Plasma concentration,"[2]; 4.17 mg/kg sc, 12.00 h, single rats No. 1-5",0.947 µg/mL and 0.964 µg/mL and 0.712 µg/mL and 0.363 µg/mL and 0.867 µg/mL
same,Plasma concentration,"[2]; 4.17 mg/kg sc, 16.00 h, Mean",0.468 µg/mL
same,Plasma concentration,"[2]; 4.17 mg/kg sc, 16.00 h, single rats No. 1-5",0.767 µg/mL and 0.682 µg/mL and 0.237 µg/mL and 0.183 µg/mL and 0.471 µg/mL
same,Plasma concentration,"[2]; 4.17 mg/kg sc, 20.00 h, Mean",0.205 µg/mL
same,Plasma concentration,"[2]; 4.17 mg/kg sc, 20.00 h, single rats No. 1-5",0.249 μg/mL and 0.252 μg/mL and 0.179 μg/mL and 0.172 μg/mL (2×)
same,Plasma concentration,"[2]; 4.17 mg/kg sc, 24.00 h, Mean",0.100 µg/mL
same,Plasma concentration,"[2]; 4.17 mg/kg sc, 24.00 h, single rats No. 1-5",0.0638 μg/mL and 0.0738 μg/mL and 0.0533 μg/mL and 0.155 μg/mL (2×)
same,Plasma concentration,"[2]; 4.17 mg/kg sc, 28.00 h, Mean",0.0667 µg/mL
same,Plasma concentration,"[2]; 4.17 mg/kg sc, 28.00 h, single rats No. 1-5",0.0454 μg/mL and 0.0406 μg/mL and 0.0381 μg/mL and 0.105 μg/mL (2×)
same,Plasma concentration,"[2]; 4.17 mg/kg sc, 41.00 h, Mean",0.0545 µg/mL
same,Plasma concentration,"[2]; 4.17 mg/kg sc, 41.00 h, single rats No. 1-5",0.0298 μg/mL and 0.0288 μg/mL and 0.0231 μg/mL and 0.0954 μg/mL (2×)
same,Plasma concentration,"[2]; 4.17 mg/kg sc, 53.00 h, Mean",0.0366 µg/mL
same,Plasma concentration,"[2]; 4.17 mg/kg sc, 53.00 h, single rats No. 1-5",0.0108 µg/mL and 0.0074 µg/mL and 0.0171 µg/mL and 0.0669 µg/mL and 0.0809 µg/mL
same,Plasma concentration,"[2]; 4.17 mg/kg sc, 65.00 h, Mean",0.0233 µg/mL
same,Plasma concentration,"[2]; 4.17 mg/kg sc, 65.00 h, single rats No. 1-5",0.008536 µg/mL and 0.003139 µg/mL and 0.0168 µg/mL and 0.0440 µg/mL and 0.044 µg/mL
same,Plasma concentration,"[2]; 4.17 mg/kg sc, 77.00 h, Mean",0.0114 µg/mL
same,Plasma concentration,"[2]; 4.17 mg/kg sc, 77.00 h, single rats No. 1-5",0.005846 µg/mL and 0.002666 µg/mL and 0.0125 µg/mL and 0.0181 µg/mL and 0.01811 µg/mL
same,AUC 0-77,[2]; 4.17 mg/kg single sc,7055.774 ng·h/mL
same,AUC 0-∞,[2]; 4.17 mg/kg single sc,9006.668 ± 3859.519 ng·h/mL
same,MRT 0-77,[2]; 4.17 mg/kg single sc,14.880 h
same,MRT 0-∞,[2]; 4.17 mg/kg single sc,17.330 h
same,Tmax,[2]; 4.17 mg/kg single sc,7.4 ± 0.55 h
same,ka,[2]; 4.17 mg/kg single sc,0.258
same,t½ka (absorption half-life),[2]; 4.17 mg/kg single sc,2.265 h
same,t½ke (elimination half-life),[2]; 4.17 mg/kg single sc,30.710 ± 3.100 h
same,"α, ke",[2]; 4.17 mg/kg single sc,0.090
same,Plasma concentration,"[2]; 12.5 mg/kg sc, 0.50 h, Mean",0.848 µg/mL
same,Plasma concentration,"[2]; 12.5 mg/kg sc, 0.50 h, single rats No. 1-5",0.176 µg/mL and 0.741 µg/mL and 0.995 µg/mL and 0.598 µg/mL and 1.728 µg/mL
same,Plasma concentration,"[2]; 12.5 mg/kg sc, 1.00 h, Mean",1.877 µg/mL
same,Plasma concentration,"[2]; 12.5 mg/kg sc, 1.00 h, single rats No. 1-5",0.740 µg/mL and 1.435 µg/mL and 1.875 µg/mL and 1.153 µg/mL and 4.180 µg/mL
same,Plasma concentration,"[2]; 12.5 mg/kg sc, 3.00 h, Mean",4.078 µg/mL
same,Plasma concentration,"[2]; 12.5 mg/kg sc, 3.00 h, single rats No. 1-5",1.459 µg/mL and 2.970 µg/mL and 4.100 µg/mL and 2.070 µg/mL and 9.793 µg/mL
same,Plasma concentration,"[2]; 12.5 mg/kg sc, 5.00 h, Mean",7.518 µg/mL
same,Plasma concentration,"[2]; 12.5 mg/kg sc, 5.00 h, single rats No. 1-5",2.030 µg/mL and 5.512 µg/mL and 8.329 µg/mL and 6.748 µg/mL and 14.973 µg/mL
same,Plasma concentration,"[2]; 12.5 mg/kg sc, 6.00 h, Mean",9.970 µg/mL
same,Plasma concentration,"[2]; 12.5 mg/kg sc, 6.00 h, single rats No. 1-5",2.337 µg/mL and 7.869 µg/mL and 11.753 µg/mL and 9.720 µg/mL and 18.172 µg/mL
same,Plasma concentration,"[2]; 12.5 mg/kg sc, 7.00 h, Mean",13.413 µg/mL
same,Plasma concentration,"[2]; 12.5 mg/kg sc, 7.00 h, single rats No. 1-5",3.372 µg/mL and 8.202 µg/mL and 11.959 µg/mL and 7.582 µg/mL and 35.951 µg/mL
same,Plasma concentration,"[2]; 12.5 mg/kg sc, 8.00 h, Mean",10.626 µg/mL
same,Plasma concentration,"[2]; 12.5 mg/kg sc, 8.00 h, single rats No. 1-5",4.395 µg/mL and 6.684 µg/mL and 10.711 µg/mL and 6.343 µg/mL and 24.998 µg/mL
same,Plasma concentration,"[2]; 12.5 mg/kg sc, 10.00 h, Mean",8.284 µg/mL
same,Plasma concentration,"[2]; 12.5 mg/kg sc, 10.00 h, single rats No. 1-5",3.014 µg/mL and 5.271 µg/mL and 9.706 µg/mL and 6.000 µg/mL and 17.430 µg/mL
same,Plasma concentration,"[2]; 12.5 mg/kg sc, 12.00 h, Mean",7.390 µg/mL
same,Plasma concentration,"[2]; 12.5 mg/kg sc, 12.00 h, single rats No. 1-5",2.663 µg/mL and 4.448 µg/mL and 7.496 µg/mL and 5.562 µg/mL and 16.780 µg/mL
same,Plasma concentration,"[2]; 12.5 mg/kg sc, 16.00 h, Mean",6.292 µg/mL
